Laboratory results from patent US20230399384A1.
Read-outs that look alike come from different tables or passages of the source.

B1: CoV2-16 (antibody, V domains shown)
VH: QVQLHQWGAGLLKPSETLSRTCAVYGGSFSGYYWTWIRQAPGKGLEWIGEINHGGSTRYNPSLESRVSISVDTSKKQFSLELRSVTAADTAIYYCARGYDTNWYGDGYNWFDPWDRGTLVTVSS
VL: QAVVTQPPSVSGTPGQRVTISCSGSSSSIGSNTVHWYQHLPGTAPKLLMYNNNERPSGVPARFSGSKSGTSASLVITGLQADDEAEYYCQSYDTGLSGHVFGSGTELTVL
B2: CoV2-09 (antibody, V domains shown)
VH: QVQLHQWGAGLLKPSETLSRTCAVYGGSFSGYYWTWIRQAPGKGLEWIGEINHGGSTRYNPSLESRVSISVDTSKKQFSLELRSVTAADTAIYYCARGYDTNWYGDGYNWFDPWDRGTLVTVSS
VL: QSALTQDPSVSVALGQTVRITCQGDSLRGSFASWYRQKPGQAPVLVIFGINNRPSGVPDRFSGSSSGNTASLTITGAQAEDEADYYCNSRESNSNRILFGGGTKVTVL

Tests used:
Details in all cases: remark: other sources report otherwise
[1] = target: T1, sCoV2-RBD (Fc-tagged RBD of SARS-CoV-2 S protein) (SARS-CoV-2; human), P0DTC2
[2] = target: T1, sCoV2-RBD (Fc-tagged RBD of SARS-CoV-2 …); experiment: BLI (Octet) blocking of ACE2 binding to captured sCoV2-RBD
[3] = target: T1, sCoV2-RBD (Fc-tagged RBD of SARS-CoV-2 …); experiment: ELISA titration on coated sCoV2-RBD
[4] = target: trimeric prefusion S protein of SARS-CoV-2 (SARS-CoV-2), P0DTC2

| Binder | EC50 [1] [nM] | IC50 [2] [mg/L] | EC50 [3] [nM] | Kd [4] [nM] |
| --- | --- | --- | --- | --- |
| B1 | 7.77 | 6.9 | 7.77 | 5.35 |
| B2 | – | 3.54 | – | 0.94 |
